According to PMC7293005 (Nucleic Acids Research, 2020):

Biological target: T1, 6xHis-tagged full-length Prp5p (S. cerevisiae, UniProt P21372 1-849)
T1 sequence: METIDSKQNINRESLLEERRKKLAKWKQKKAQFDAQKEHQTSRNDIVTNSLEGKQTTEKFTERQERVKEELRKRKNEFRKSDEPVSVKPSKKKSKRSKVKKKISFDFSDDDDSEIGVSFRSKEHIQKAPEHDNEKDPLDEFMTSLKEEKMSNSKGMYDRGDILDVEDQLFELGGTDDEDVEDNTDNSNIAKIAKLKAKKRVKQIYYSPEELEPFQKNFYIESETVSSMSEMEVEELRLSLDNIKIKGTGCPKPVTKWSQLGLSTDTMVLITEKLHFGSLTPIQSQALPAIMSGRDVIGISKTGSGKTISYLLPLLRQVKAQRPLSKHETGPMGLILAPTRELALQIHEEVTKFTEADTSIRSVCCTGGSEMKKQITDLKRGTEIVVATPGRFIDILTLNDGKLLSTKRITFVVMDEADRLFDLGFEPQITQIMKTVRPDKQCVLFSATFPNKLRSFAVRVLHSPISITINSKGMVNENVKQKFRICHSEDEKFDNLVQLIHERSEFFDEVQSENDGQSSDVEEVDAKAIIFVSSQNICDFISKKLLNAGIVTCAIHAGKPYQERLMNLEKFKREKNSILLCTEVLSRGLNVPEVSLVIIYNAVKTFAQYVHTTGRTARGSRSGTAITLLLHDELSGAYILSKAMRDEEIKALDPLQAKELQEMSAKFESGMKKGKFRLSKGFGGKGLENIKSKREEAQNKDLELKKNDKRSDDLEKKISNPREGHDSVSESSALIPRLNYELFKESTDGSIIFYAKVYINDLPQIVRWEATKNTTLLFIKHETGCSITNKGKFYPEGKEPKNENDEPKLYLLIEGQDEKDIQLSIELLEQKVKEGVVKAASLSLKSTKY
Assay: pull-down

binding result: binds
B1: GST-tagged Spt8p (natural protein, S. cerevisiae, UniProt P38915 1-602, looked up)
chain: MDEVDDILINNQVVDDEEDDEEMLSGLENDSKQDLEGNDDGGEDEEDDDDDDEDDDDDEDEREDDDEQEDDDGEDDAARMDKTATPTNEHQHDEQKAAAAGAGGAGDSGDAVTKIGSEDVKLSDVDGGVGSREASSSTHEASANGEVYEYYKHMLNAAQIADSYNIYPTAAIPIQTHVNALAVSRGLKYLFLGGSDGYIRKYDLLNTLEGKLSLTILQKHSLAESIQNAGILQSYWENEIPQKKSEMKLSANKTDYEPKVSPVHSLEVQSECLFILSGLQNGGITMQGVRYMEGSIAHYFKGRNGHTQIVNILRLNGQEDRFLSGSWDKRLLEWDLQTGDIVNEFKKSRSELSSLEMRPLYSSVDVSGNVNSGKENENADDDMDSLFGDEDEDEKQDAGNEPVETGDGSNGEENKEQISEESLNIVYDESVFMTSGLNGSVHIWDRRMTQSPALSLERGAGVPPWCLSACWGVDGDHVYAGRRNACVEQFDLKMPSKPIHNLKLPSISGPVSCVKAMPNNKHLLCASRDNIRLYNVEIAVDASNSTTKSSKVPFLIVPGHHGGIISNLYLDPTSRFIISTSGNRGWQGNSTDTTLIYDIDLE
